In patent publication US7097986 (dated 2006):

Target: T1, VEGFR-1/Ig (human, UniProt P17948)
T1 chain: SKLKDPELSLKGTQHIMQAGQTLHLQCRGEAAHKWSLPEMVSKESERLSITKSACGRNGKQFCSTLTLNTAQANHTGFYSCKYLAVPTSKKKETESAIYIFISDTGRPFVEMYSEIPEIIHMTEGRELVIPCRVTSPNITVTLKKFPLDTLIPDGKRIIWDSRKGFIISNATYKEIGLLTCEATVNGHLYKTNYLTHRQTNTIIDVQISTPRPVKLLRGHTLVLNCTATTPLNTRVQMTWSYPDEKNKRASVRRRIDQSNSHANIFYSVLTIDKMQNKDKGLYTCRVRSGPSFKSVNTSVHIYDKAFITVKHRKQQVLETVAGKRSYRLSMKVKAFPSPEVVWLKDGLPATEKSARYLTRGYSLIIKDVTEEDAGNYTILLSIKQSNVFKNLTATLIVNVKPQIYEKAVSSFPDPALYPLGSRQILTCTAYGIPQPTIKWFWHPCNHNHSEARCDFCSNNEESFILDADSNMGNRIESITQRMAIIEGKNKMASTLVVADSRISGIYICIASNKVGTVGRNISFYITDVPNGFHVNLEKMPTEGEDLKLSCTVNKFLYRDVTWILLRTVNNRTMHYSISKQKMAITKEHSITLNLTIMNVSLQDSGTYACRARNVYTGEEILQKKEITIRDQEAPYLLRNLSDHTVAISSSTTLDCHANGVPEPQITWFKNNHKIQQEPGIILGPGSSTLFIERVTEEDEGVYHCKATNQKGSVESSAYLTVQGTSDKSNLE
Assay: ELISA

binding result: no binding
B1: VEGF-DΔNΔC (protein)
chain: FYDIETLKVIDEEWQRTQCSPRETCVEVASELGKSTNTFFKPPCVNVFRCGGCCNEESLICMNTSTSYISKQLFEISVPLTSVPELVPVKVANHTGCKCLPTAPRHPYS
